According to patent US20230181753A1 (INSERM INSTITUT NATIONAL DE LA SANTE ET DE LA RECHERCHE …, published 2023):

B1: 314.8 mAb (antibody, V domains shown)
VH: QVQLQQPGTELMKPGASVKLSCKASGYTFTTYWMHWVKQRPGQGLEWIGEIDPSDSYVNYNQNFKGKATLTVDKSSSTAYIQLSSLTSEDSAVYFCARSPDYYGTSLAWFDYWGQGTLVTVST
VL: DIVMTQAAPSVPVTPGESVSISCRSSKSPLHSNGNIYLYWFLQRPGQSPQLLIYRMSNLASGVPDRFSGSGSGTTFTLKISRVEAEDVGVYYCMQHLEYPYTFGGGTKLEIK
B2: anti-ICOS-PBD ADC (antibody, V domains shown)
VH: QVQLQQPGTELMKPGASVKLSCKASGYTFTTYWMHWVKQRPGQGLEWIGEIDPSDSYVNYNQNFKGKATLTVDKSSSTAYIQLSSLTSEDSAVYFCARSPDYYGTSLAWFDYWGQGTLVTVST
VL: DIVMTQAAPSVPVTPGESVSISCRSSKSPLHSNGNIYLYWFLQRPGQSPQLLIYRMSNLASGVPDRFSGSGSGTTFTLKISRVEAEDVGVYYCMQHLEYPYTFGGGTKLEIK
modifications: coupled to pyrrolobenzodiazepine (PBD); site and linker not stated
B3: anti-ICOS-MMAE ADC (anti-ICOS 314.8-MMAE) (antibody, V domains shown)
VH: QVQLQQPGTELMKPGASVKLSCKASGYTFTTYWMHWVKQRPGQGLEWIGEIDPSDSYVNYNQNFKGKATLTVDKSSSTAYIQLSSLTSEDSAVYFCARSPDYYGTSLAWFDYWGQGTLVTVST
VL: DIVMTQAAPSVPVTPGESVSISCRSSKSPLHSNGNIYLYWFLQRPGQSPQLLIYRMSNLASGVPDRFSGSGSGTTFTLKISRVEAEDVGVYYCMQHLEYPYTFGGGTKLEIK
modifications: coupled to MMAE; site and linker not stated

How the values were obtained:
[1] = substrate: ICOS (Inducible T cell costimulator) (UniProt Q9Y6W8); assay: flow cytometry, staining of MJ cells
[2] = substrate: ICOS (Inducible T cell costimulator) (UniProt Q9Y6W8); assay: flow cytometry, staining of MyLa cells
[3] = substrate: ICOS (Inducible T cell costimulator) (UniProt Q9Y6W8); assay: flow cytometry, staining of HUT78 cells
[4] = target: T1, ICOS (Inducible T cell costimulator) (UniProt Q9Y6W8 21-199, limits assumed); assay: cell-based or functional assay
T1 sequence (looked up): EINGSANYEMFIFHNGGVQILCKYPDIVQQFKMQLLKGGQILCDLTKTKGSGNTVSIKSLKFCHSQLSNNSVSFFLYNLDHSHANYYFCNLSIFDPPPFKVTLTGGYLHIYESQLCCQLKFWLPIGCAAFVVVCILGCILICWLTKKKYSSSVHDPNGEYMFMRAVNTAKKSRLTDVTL

Binder	MFI ratio [1]	MFI ratio [2]	MFI ratio [3]	IC50, cell viability (alamarBlue), HUT78 cells [4] [ng/mL]	IC50, cell viability (alamarBlue), Jurkat-ICOS cells [4] [ng/mL]	IC50, cell viability (alamarBlue), MJ cells [4] [ng/mL]	IC50, cell viability (alamarBlue), MyLa cells [4] [ng/mL]
B1	96	144	4.5				
B2				9	0.7	0.8	1.2
B3					6.7	36.2	8.2
